Biological target: T1, β1-RlucII (human, UniProt Q10567 1-949)
T1 construct: β1 subunit of AP-1, human; amplified by PCR minus the stop codon; also called β-RlucII; source: HEK293T, transfected, in live cells (BRET), cell fractions and lysate (co-IP); not shown: RlucII, C-terminal, kept
T1 sequence (looked up): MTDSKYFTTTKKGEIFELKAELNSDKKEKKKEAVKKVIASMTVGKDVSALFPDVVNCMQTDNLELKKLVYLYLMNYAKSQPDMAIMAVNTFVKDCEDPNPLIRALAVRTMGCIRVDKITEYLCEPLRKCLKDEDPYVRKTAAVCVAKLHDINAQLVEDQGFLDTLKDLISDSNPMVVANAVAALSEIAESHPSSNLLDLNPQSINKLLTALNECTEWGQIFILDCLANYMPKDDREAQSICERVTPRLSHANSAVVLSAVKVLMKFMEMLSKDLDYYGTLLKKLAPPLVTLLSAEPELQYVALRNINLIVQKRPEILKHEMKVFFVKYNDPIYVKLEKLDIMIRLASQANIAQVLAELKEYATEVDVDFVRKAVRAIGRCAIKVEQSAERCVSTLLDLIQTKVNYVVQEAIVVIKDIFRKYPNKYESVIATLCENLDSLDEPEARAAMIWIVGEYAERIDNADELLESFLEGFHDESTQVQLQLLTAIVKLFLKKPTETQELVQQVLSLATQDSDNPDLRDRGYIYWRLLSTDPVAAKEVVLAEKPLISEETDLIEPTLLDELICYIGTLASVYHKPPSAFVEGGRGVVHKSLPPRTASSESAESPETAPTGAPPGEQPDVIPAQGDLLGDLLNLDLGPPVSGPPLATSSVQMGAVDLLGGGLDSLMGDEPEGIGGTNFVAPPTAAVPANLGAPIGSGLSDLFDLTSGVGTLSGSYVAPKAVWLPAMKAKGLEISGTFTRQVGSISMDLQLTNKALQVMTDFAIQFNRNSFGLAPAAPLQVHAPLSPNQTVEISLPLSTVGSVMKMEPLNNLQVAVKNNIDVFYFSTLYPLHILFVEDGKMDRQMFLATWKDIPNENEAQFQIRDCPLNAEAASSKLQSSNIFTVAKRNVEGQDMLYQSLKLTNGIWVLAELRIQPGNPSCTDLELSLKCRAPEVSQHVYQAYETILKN
Test: FRET or BRET; BRET^2 in live HEK293T cells (γ/µ1 also in Arf1-KO cells; some panels with Brefeldin A 10 µM 15 min or co-expressed Arf1-HA forms): low constant amount of the RlucII donor, increasing amounts of the GFP10 acceptor; coelenterazine 400a 5 µM; BRET50 and BRETmax from a one-site saturation fit
Settings: partners not purified

B1: β1-GFP10 (AP-1 β1 subunit, wild type) (natural protein, human, UniProt Q10567 1-949, looked up)
chain: MTDSKYFTTTKKGEIFELKAELNSDKKEKKKEAVKKVIASMTVGKDVSALFPDVVNCMQTDNLELKKLVYLYLMNYAKSQPDMAIMAVNTFVKDCEDPNPLIRALAVRTMGCIRVDKITEYLCEPLRKCLKDEDPYVRKTAAVCVAKLHDINAQLVEDQGFLDTLKDLISDSNPMVVANAVAALSEIAESHPSSNLLDLNPQSINKLLTALNECTEWGQIFILDCLANYMPKDDREAQSICERVTPRLSHANSAVVLSAVKVLMKFMEMLSKDLDYYGTLLKKLAPPLVTLLSAEPELQYVALRNINLIVQKRPEILKHEMKVFFVKYNDPIYVKLEKLDIMIRLASQANIAQVLAELKEYATEVDVDFVRKAVRAIGRCAIKVEQSAERCVSTLLDLIQTKVNYVVQEAIVVIKDIFRKYPNKYESVIATLCENLDSLDEPEARAAMIWIVGEYAERIDNADELLESFLEGFHDESTQVQLQLLTAIVKLFLKKPTETQELVQQVLSLATQDSDNPDLRDRGYIYWRLLSTDPVAAKEVVLAEKPLISEETDLIEPTLLDELICYIGTLASVYHKPPSAFVEGGRGVVHKSLPPRTASSESAESPETAPTGAPPGEQPDVIPAQGDLLGDLLNLDLGPPVSGPPLATSSVQMGAVDLLGGGLDSLMGDEPEGIGGTNFVAPPTAAVPANLGAPIGSGLSDLFDLTSGVGTLSGSYVAPKAVWLPAMKAKGLEISGTFTRQVGSISMDLQLTNKALQVMTDFAIQFNRNSFGLAPAAPLQVHAPLSPNQTVEISLPLSTVGSVMKMEPLNNLQVAVKNNIDVFYFSTLYPLHILFVEDGKMDRQMFLATWKDIPNENEAQFQIRDCPLNAEAASSKLQSSNIFTVAKRNVEGQDMLYQSLKLTNGIWVLAELRIQPGNPSCTDLELSLKCRAPEVSQHVYQAYETILKN
notes: β1 subunit of the adaptor protein complex 1 (AP-1), human; amplified by PCR minus the stop codon; also called β-GFP10; full-length β1-GFP10; source: HEK293T, transfected, in live cells (BRET), cell fractions and lysate (co-IP); not shown: GFP10, C-terminal, kept
  fold decrease of BRET50 in the presence of Arf1^Q71L-HA: ~4 fold
